Results: the nanobody polyreactivity screen of Harvey et al. (2022)

Test: yeast display, Sf9 membrane polyspecificity reagent, FACS + sequencing; frameworks hold sequencing errors
How it was run: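 Galactose-induced (36–48 hours) yeast carrying a synthetic nanobody display library were exposed to 10% biotinylated, detergent-solubilized Sf9 membrane reagent at 4 °C for 1 hour. FACS followed streptavidin microbead enrichment, using low and high (top ~1%) gates for expression (anti-HA) and reagent binding (streptavidin). Colony PCR, MiSeq 2 × 250 sequencing and CDR-length filtering followed. Labels for polyreactivity reflect the gate of origin.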

Sequence	polyreactivity (PSR sort gate)
QVQLVESGGGLVQAGGSFRLSCAASGSIFDGYAMGWYRQAPGKERELVAAISSGGDSTYYADSVKGRFTISRDNAKNTVYLQMNSLKPEDTAVYYCNADSLVGHSYDYWGQGTQVTVSS	low polyreactivity
QVQLVESGGCLVQAGGSLRLSCSTSGSTFAVYVMGWSRQAPGKERELVAAISTSGARTYYADSVKGRFTISRDNAKNTDYLQMNSLKPEDTAVYYCAARGIYKSKYDYWGQGTQVSVSS	high polyreactivity
QVQLVESGGGLVQAGGSLRLSCAASGSIFVVYAMGWYRQAPGKERELVAAITADDDTNYADSVKGRFTISRDNAKNTDYLQMNSLKPEDTAVYYCAKEVWLAINTRTGYEVYYWGQGTQVTVSS	low polyreactivity
QVQLVESGGGLVQAGGSLRLSCADSGRIFGINAKGWYRQAPGKARELVASISRRVGRTSYADSVKGRFTISRDNAKNTVYLQMNSLKPEDTAGYFCAADVWNDGSWTDYDYWGQGTQVTVSS	high polyreactivity
QVQLVESGGGLVQAGGSLRLSCAASGRTALIYAMGWYRQAPGKERELVAAITASGGNTDYADSVKGRFTISRDNAMNTVYLQMNSLKPEDTAVYYCNKSRYDGGSGYDYWGQGTQVTVSS	low polyreactivity
QVQLVESGGGLVQAGGSLRLSCAASGTLSSYAMGWYRQAPGKERELVAAISLSGGSTYADSVKGRFTISRDNAKNTVYLQMNSLKPEDTAVYYCAKDWDVDITWSFSIYNYWGQGTQVTVSS	low polyreactivity
QVQLVESGGRLVQAGGSLRLSCAASGSTFSYYDMGGYRQAPGKEMELVADISWSGGSTYYADSVKGRFTISRDNAKNTVYLQMNSLKPEDTAVYYCAARGYVRWYNRYDYWGQGTQVTVSS	low polyreactivity
QVQLVESGGGLVQAGGSLRLSCAASGFTFYYYTMGWYRQAPGKERELVAAITWRGGSTNYADSVKGRFTISRDNAKNTVYLQMNSLKPEDTAVYYCAAVTYWFWPGMDYWGQGTQVTVSS	low polyreactivity
QVQLVESGGGLDQAGGSLRLSCAASGRIFRYYTMGWYRQAPGKERELVAAISTSDDSTNYADSVKGRFTISRDNAKNTVYLQMNSLKPEDTAVYYCAADQSRVGSYQDYDYWGQGTQVTVSS	low polyreactivity
QVQLVESGGGLVQAGGSLRLSCAATGRTFYVYAMGWYRQAPGKERELVADITWSGGSTYADSVKGRFTISRDNAKNTVYLQMNSLKPEDTAVYYCAAEWQTWYGVEYDYWGQGTQVTVSS	high polyreactivity
QVQLVESGGGLVQAGGSLRLSCAASGLTFYHYTMGWYRQAPGKERELVAAITKNGGSTYYADSVKGRFTISRDNAKNTVYLQMNSLKPEDTAVYYCNVGPRRVDRSRAASSDYDYWGQGTQVTVSS	high polyreactivity
QVQLVESGGGLLQAGGSLSLSCAASGFTFNRNAMGWYRQAPGKERELVAAISWSGGSTYYADSVKGRFTISRDNAKNTVYLQMNSLKPEDTAVYYCAKGYRRVYSMDWGQGTQVTVSS	low polyreactivity
QVHLVESGGGLVQAGGSLRLSCAASGRTFVFNAMGWYRQAPGKEREFVAAITWGGGSTYYADSVKGRFTISRDNAKNTVYLQMNSLKPEDTADYYCARPTTYGYYYWGQGTQVTVSS	high polyreactivity
QVQLVESGGGLVQAGGSLRLSCAASGSIFSSNAMGWYRQAPGKERELVASIDGGPTTYADSVKGRFTISRDNAKNTVYLQMNSLKPEDTAVYFCKAVYAFNGYDYWGQGTQVTVSS	low polyreactivity
QVQLVESGGGLVQAGGSLRLSCAASGRIFSQNAMGWYRQAPGKEREVVAVISRGGSTNYADSVKGRFTISRDNAKNTVYLQMNSLKPEDTAVYYCAADYAYIRSVWKWFIGDYWGQGTQVTVSS	low polyreactivity
QVQLVESGGGLVQAGGSLRLSCAASGSIFHYYAMGWYRQAPGKERELVAAISWSGGRTNYADSVKGRFTISRDNAKNTVYLQMNSLKPEDTAVYYCAAAERSYSGGGKIGKYYWGQGTQVTVSS	high polyreactivity
QVQLVESGGGLVQAGGSLRLSCDASGRIFYRYVMGWYRQAPGKERELVAAIRNSGGSTYYADSVKGRFTISRDNAKNTVYLQMNSMKPEDTAVYYCAKRYGTSFYVGSAKIGYDYWGQGTQVTLSS	high polyreactivity
QVQLVESGGGLDQAGGSLRLSCAASGGIFVGYAMGWYRQSPGKERELVASISSGGSTKYADSVKGRFTISRDNAKNTVYLQMNSLKPEDTAVYYCAATDTEGIDARYASVPTSYDYWGQGTQVTVSS	low polyreactivity
QVQLVESGGGLVQAGGSLRLSCAASGFIFGLNAMGWYRPAPGKERELVAAISYNGGSTYYADSVKGRFTISRDNAKNTVYLQMNSLKPEDTAVDYCNAYLYRKVGYRAYDYWGHGTQVTVSS	low polyreactivity
QVQLVESGGGLLQAGGSLRLSCAASGFIFYDYAMGWYRQAPGKERELVAAITKPGGSTYYADSEKGRFTISRDNAKNTVYLQMNSLKPEDTAGYYCAADVMYYHKLTYGYDYWGQGTQVTVSS	high polyreactivity
QVQLVESGGGLVQAGGSLRLSCAASGSIFQYYVMGWYRQAPGKERELDAAIRRSGTTYYADSVKGRFTISRDNAKNTVYLQMNSLKPEDTAVDYCNADSIYYYYLIEYEYWGQGSQVTVSS	low polyreactivity
QVQLVESGGGLVQAGGSLRLICAASGSIFGHNAMGWYRQAPGKERELVAAINASDGNTYYADSVKGRFTISRDNAKNTVYLQMNSLKPEDTAVYYCAAEGYFDHYYYYRVYSWGQGTQVTVSS	low polyreactivity

Sequence	polyreactivity (PSR sort gate)
QVQLVESGGGLVQAGGSLRLSCAASGFTFRLYVMGWYRQAPGKERELVAAISSRGGSTYYADSVKGRFTISRDNAKNTVYLQMNSLKPEDTAVYYCAADRPRGRETVDYWGQGTQVTVSS	high polyreactivity
QVQLVESGGGLVQAGGSLRLSCAASGRTFRANTMGWYRLAPGKERELVAAISHSGGSTYYADSVKGRFTISRDNAKNTVYLQMNSLKPEDTAVYYCATDGGSYSWASPRVDYWGQGTQVTVSS	low polyreactivity
QVQLVESGGGLVQAGGSLRLSCAASGRTFVQYVMGWYRQAPGKERELVARISSGGSTFYADSVKGRFTISRDNAKNTVYLQMNSLKPEDTAVYYCAAQWTRYRRRPMDYWGQGTQVTVSS	high polyreactivity
QVQLVESGGGLVQAGGSLRLSCAASGRTFSKNAMGWYRQAPGKERELVADISRRGGRTYYADSVNGRFTISRDNAKNTVYLQMNSLKPEDTAVYYSAARRRGSVGVGYAYPYNYWGQGTQVTVSS	high polyreactivity
QVQLVESGGGLVQAGGSLRLSCAASGFIFGIYAMGWYRQAPGKERELVARISRSGVSTYYADSVKGRFTISRDNAKNTVYLQMNSLKPEDTAVYYCNAYRGGLSSEHYYWGQGTQVTVSS	high polyreactivity
QVQLVESGGGLVQAGGSLRLSCAASGRIFPYYAMGWYRQAPGKERELVAAISQSDGSTYYADSVKGRFTISRDNEKNTVYLQMNSLKPEVTAVYYWAKRQASYTQHRKGRGDYWGQGTQVTVSS	low polyreactivity
QVQLVESGGGLVQAGGSLRLSCAASGNTFSDYAMGWYRQAPGKERELVAAISSSGVRTYYADSVKVRFTISRDNAKNTVYLHMISLNPEDTAVYYCAADNYYYRFVAAMDYWGQGTQVTVSS	high polyreactivity
QVQLVESGGGLVQAGGSLRLSCAASGRIFAYYAMGWYREAAGKERELVAAITTNGGGTYYADSVKGRFTISRDNAKNTVYLQMNSLKPEHTAVYYSNADKQRSSIFDYWGQGTQVTVSS	low polyreactivity
QFQLVESGGGLVQSGGSLRLSCAPTGLIFRPYAMGCYRQAPGKERELVAGINSGGNTDYADSVKGRFTISRDNAKNTVYLQMNSLKPEDTAVYYCNREYQVTIYDYCGQGTQVTVSS	low polyreactivity
QVQLVESGGVLVQAGGSLRLSCAASGRIFRANTMGWYRQAPGKEMELVANISKNGGRTYYADSVKGRFTISRDNAKNTVYLQMNSLKPEDTAVYYFNAEWRGWRFLEYGSYIYQSGYWGQGTQVTVSS	high polyreactivity
QVQLVESGGGLVQAGGSLRLSCAASGRIFDNYVMGWYRQAPGKERELVAAISSGGGTYYADSVKGRFTISRDNAKNTVYLQMNSLKPEDTAVYYCAKRRVYDRSFGRYDYCGQGTQVTVSS	low polyreactivity
QVQLVESGGGLVQAGGSLRLSCAASGLILPDYAMGWYRQAPGKERELVAAISESAASTYYADSVKGRFTISRDNAKNTVYLQMNSLKPEDTAVYYCAAEVWCYSWYYWYYDGEYYWGQGTQVTVSS	high polyreactivity
QVQLVESGGGLVQAGGSLRLSCAASGSTFRVYGMGWSRQAPGKERELVAVIRWRGGRTSYADSVKGRFTISRDYAKNTVYLQLNSLKPEDTAVYYCARQRSYGRSSYSYGYDYWGQGTQVTVSS	high polyreactivity
QVQLVESGGGLVQAGGSLRLSCAASGSTITDYTMGWYRQAPGKERELVAVISQSGGSTYYADSVKGRFTISRDNAKNTVYLQMNSLKPEDTAVYYCAARTYWRGYRGQKYDYWGQGTQVTVSS	high polyreactivity
QVQLVESGGGLVQAGGSLRLSCAASGFIVRYNAMGWYRQAPGKERELVAVITDSSDSTYYADSVKGRFTISRDNAKNTVYLQMNSLKPVDTAVYYCDTDYGYAGDYWGQGSQVTVSS	low polyreactivity
QVQLVESGGGLVQAGGSLRLSCAASVNIFESYGMGWYRQAPGKERELVATINTSSGSTYYADSVKGRFTISRDNAKNTVYLQMNSLKPEDTAVYYCSAEWYPYPWGYGYSGQGTQVTVSS	low polyreactivity
QVQLVESGGGLVQAGGSLRLSCAASGRTFNNYAMGWYRQAPGKERELVASIRKNGGSTYYADSVKGRFTISRDNAKNTVYLQMNSLKPEDTAVYYCGARYWGISRIFPSKYDYWGQGTQVTVSS	high polyreactivity
QVQLQESGGGLVQAGGSLRLSCAASGTISPLPAMAWYRQAPGKEREFVAGIDTGAITNYADSVKGRFTISRANAKNTVYLQMNSLIPEDTAVYYCAVFPAAYDYYERYYTYWGQGTQVTVSS	low polyreactivity
QVQLVESGGGLVQAGGSLRLSCAASGFIFNNYGMGWSRQAPGKERELVATISRGASTNYADSVKGRFTISRDNAKNTVYLQMNSLKPEDTAVYYCAKDYGDWGQGTQVTVSS	low polyreactivity
QVQLVESGGGLVQAGGSLRLSCAASGFTFPIYAMGWYRQAPGKERELVAAITTRGGRTYYADSVKGRFTISRDNAKNTVYLQMNSLKPEDTAVYYCTTRGRRTDYDYWGQGTQVTVSS	high polyreactivity
QVQLVESGGGLVQAGGSLRLSCAASGGTFFTNAMGWYRQAPGKERELVAAISRGGSSTYYADSVKGRFTISRDNAKNTVYLQMTSLKPEDTAVYYCNKAYHRRDSEFGYWGQGTQVTVSS	high polyreactivity
